B1: MED11 (natural protein, human, UniProt Q9P086 1-117, looked up)
chain: MATYSLANERLRALEDIEREIGAILQNAGTVILELSKEKTNERLLDRQAAAFTASVQHVEAELSAQIRYLTQVATGQPHEGSSYSSRKDCQMALKRVDYARLKLSDVARTCEQMLEN
B2: MED31 (natural protein, human, UniProt Q9Y3C7 1-131, looked up)
chain: MAAAVAMETDDAGNRLRFQLELEFVQCLANPNYLNFLAQRGYFKDKAFVNYLKYLLYWKDPEYAKYLKYPQCLHMLELLQYEHFRKELVNAQCAKFIDEQQILHWQHYSRKRMRLQQALAEQQQQNNTSGK
B3: GTF2E2 (natural protein, human, UniProt P29084 1-291, looked up)
chain: MDPSLLRERELFKKRALSTPVVEKRSASSESSSSSSKKKKTKVEHGGSSGSKQNSDHSNGSFNLKALSGSSGYKFGVLAKIVNYMKTRHQRGDTHPLTLDEILDETQHLDIGLKQKQWLMTEALVNNPKIEVIDGKYAFKPKYNVRDKKALLRLLDQHDQRGLGGILLEDIEEALPNSQKAVKALGDQILFVNRPDKKKILFFNDKSCQFSVDEEFQKLWRSVTVDSMDEEKIEEYLKRQGISSMQESGPKKVAPIQRRKKPASQKKRRFKTHNEHLAGVLKDYSDITSSK
B4: TAF9 (natural protein, human, UniProt Q16594 1-264, looked up)
chain: MESGKTASPKSMPKDAQMMAQILKDMGITEYEPRVINQMLEFAFRYVTTILDDAKIYSSHAKKATVDADDVRLAIQCRADQSFTSPPPRDFLLDIARQRNQTPLPLIKPYSGPRLPPDRYCLTAPNYRLKSLQKKASTSAGRITVPRLSVGSVTSRPSTPTLGTPTPQTMSVSTKVGTPMSLTGQRFTVQMPTSQSPAVKASIPATSAVQNVLINPSLIGSKNILITTNMMSSQNTANESSNALKRKREDDDDDDDDDDDYDNL
B5: GTF2A2 (natural protein, human, UniProt P52657 1-109, looked up)
chain: MAYQLYRNTTLGNSLQESLDELIQSQQITPQLALQVLLQFDKAINAALAQRVRNRVNFRGSLNTYRFCDNVWTFVLNDVEFREVTELIKVDKVKIVACDGKNTGSNTTE

The binders below were run against recombinant NPM1 (Nucleophosmin), probe of the protein array (human, UniProt P06748 1-294) (assay: peptide or protein array).
recombinant NPM1 (Nucleophosmin), probe of the protein array, sequence (P06748 whole entry): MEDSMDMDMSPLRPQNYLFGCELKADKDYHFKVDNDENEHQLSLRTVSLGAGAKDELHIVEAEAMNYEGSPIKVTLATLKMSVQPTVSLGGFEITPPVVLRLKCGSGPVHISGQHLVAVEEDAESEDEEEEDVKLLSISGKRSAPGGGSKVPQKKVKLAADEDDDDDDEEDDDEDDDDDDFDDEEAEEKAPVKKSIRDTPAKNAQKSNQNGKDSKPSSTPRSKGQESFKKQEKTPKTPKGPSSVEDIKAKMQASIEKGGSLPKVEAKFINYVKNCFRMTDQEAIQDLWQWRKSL

Binding result, binds:
B1
B2
B3
B4
B5

— publication doi:10.1101/852095 (bioRxiv, 2019)
